Starred links: 1 amine or outer side, 2 acyl side, 3 side chain; linkers in the order of their positions; H or OH if unused. Non-standard residues stand in square brackets, D forms with d. Groups on a side chain read outwards from the residue. No end group written: not given here. *: point of attachment. C18 diacid = O=C(O)CCCCCCCCCCCCCCCCC(=O)*; γGlu = O=C(O)[C@H](CCC(=O)[*:2])N[*:1]; AEEA = NCCOCCOCC(=O)O; Aib = CC(C)(N)C(=O)O
T1: CRF1R receptor (anti-target) (UniProt P34998 24-415, limits assumed)
T1 sequence (looked up): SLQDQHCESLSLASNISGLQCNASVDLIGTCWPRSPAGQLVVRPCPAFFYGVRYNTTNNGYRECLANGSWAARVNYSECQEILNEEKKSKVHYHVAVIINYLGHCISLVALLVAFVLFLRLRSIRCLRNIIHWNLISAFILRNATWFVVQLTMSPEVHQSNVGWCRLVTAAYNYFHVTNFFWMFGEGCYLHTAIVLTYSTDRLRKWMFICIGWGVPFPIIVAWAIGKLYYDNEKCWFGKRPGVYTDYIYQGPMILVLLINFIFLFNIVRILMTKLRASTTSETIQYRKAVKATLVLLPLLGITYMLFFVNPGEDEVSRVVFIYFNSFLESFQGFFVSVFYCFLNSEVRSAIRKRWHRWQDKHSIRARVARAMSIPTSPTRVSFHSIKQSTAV

B1: peptide of SEQ ID NO: 124 (peptide)
peptide: IVLSLDVPIKLK([AEEA-AEEA-γGlu-C18 diacid])QILLKQARQK[Aib]QRAQAEKNKRILERV-NH2
modifications: N-terminus assumed
SMILES: CC[C@H](C)[C@H](N)C(=O)N[C@H](C(=O)N[C@@H](CC(C)C)C(=O)N[C@@H](CO)C(=O)N[C@@H](CC(C)C)C(=O)N[C@@H](CC(=O)O)C(=O)N[C@H](C(=O)N1CCC[C@H]1C(=O)N[C@H](C(=O)N[C@@H](CCCCN)C(=O)N[C@@H](CC(C)C)C(=O)N[C@@H](CCCCNC(=O)COCCOCCNC(=O)COCCOCCNC(=O)CC[C@H](NC(=O)CCCCCCCCCCCCCCCCC(=O)O)C(=O)O)C(=O)N[C@@H](CCC(N)=O)C(=O)N[C@H](C(=O)N[C@@H](CC(C)C)C(=O)N[C@@H](CC(C)C)C(=O)N[C@@H](CCCCN)C(=O)N[C@@H](CCC(N)=O)C(=O)N[C@@H](C)C(=O)N[C@@H](CCCNC(=N)N)C(=O)N[C@@H](CCC(N)=O)C(=O)N[C@@H](CCCCN)C(=O)NC(C)(C)C(=O)N[C@@H](CCC(N)=O)C(=O)N[C@@H](CCCNC(=N)N)C(=O)N[C@@H](C)C(=O)N[C@@H](CCC(N)=O)C(=O)N[C@@H](C)C(=O)N[C@@H](CCC(=O)O)C(=O)N[C@@H](CCCCN)C(=O)N[C@@H](CC(N)=O)C(=O)N[C@@H](CCCCN)C(=O)N[C@@H](CCCNC(=N)N)C(=O)N[C@H](C(=O)N[C@@H](CC(C)C)C(=O)N[C@@H](CCC(=O)O)C(=O)N[C@@H](CCCNC(=N)N)C(=O)N[C@H](C(N)=O)C(C)C)[C@@H](C)CC)[C@@H](C)CC)[C@@H](C)CC)C(C)C)C(C)C
B2: peptide of SEQ ID NO: 148 (peptide)
peptide: IVLSLDVPIGLK([AEEA-AEEA-γGlu-C18 diacid])QILLKQERQKK[Aib]REQAETNKRILERV-NH2
modifications: N-terminus assumed
SMILES: CC[C@H](C)[C@H](N)C(=O)N[C@H](C(=O)N[C@@H](CC(C)C)C(=O)N[C@@H](CO)C(=O)N[C@@H](CC(C)C)C(=O)N[C@@H](CC(=O)O)C(=O)N[C@H](C(=O)N1CCC[C@H]1C(=O)N[C@H](C(=O)NCC(=O)N[C@@H](CC(C)C)C(=O)N[C@@H](CCCCNC(=O)COCCOCCNC(=O)COCCOCCNC(=O)CC[C@H](NC(=O)CCCCCCCCCCCCCCCCC(=O)O)C(=O)O)C(=O)N[C@@H](CCC(N)=O)C(=O)N[C@H](C(=O)N[C@@H](CC(C)C)C(=O)N[C@@H](CC(C)C)C(=O)N[C@@H](CCCCN)C(=O)N[C@@H](CCC(N)=O)C(=O)N[C@@H](CCC(=O)O)C(=O)N[C@@H](CCCNC(=N)N)C(=O)N[C@@H](CCC(N)=O)C(=O)N[C@@H](CCCCN)C(=O)N[C@@H](CCCCN)C(=O)NC(C)(C)C(=O)N[C@@H](CCCNC(=N)N)C(=O)N[C@@H](CCC(=O)O)C(=O)N[C@@H](CCC(N)=O)C(=O)N[C@@H](C)C(=O)N[C@@H](CCC(=O)O)C(=O)N[C@H](C(=O)N[C@@H](CC(N)=O)C(=O)N[C@@H](CCCCN)C(=O)N[C@@H](CCCNC(=N)N)C(=O)N[C@H](C(=O)N[C@@H](CC(C)C)C(=O)N[C@@H](CCC(=O)O)C(=O)N[C@@H](CCCNC(=N)N)C(=O)N[C@H](C(N)=O)C(C)C)[C@@H](C)CC)[C@@H](C)O)[C@@H](C)CC)[C@@H](C)CC)C(C)C)C(C)C
B3: peptide of SEQ ID NO: 123 (peptide)
peptide: IVLSLDVPIKLK([AEEA-AEEA-γGlu-C18 diacid])QILLEQARQK[Aib]QRAQAEKNKRILERV-NH2
modifications: N-terminus assumed
SMILES: CC[C@H](C)[C@H](N)C(=O)N[C@H](C(=O)N[C@@H](CC(C)C)C(=O)N[C@@H](CO)C(=O)N[C@@H](CC(C)C)C(=O)N[C@@H](CC(=O)O)C(=O)N[C@H](C(=O)N1CCC[C@H]1C(=O)N[C@H](C(=O)N[C@@H](CCCCN)C(=O)N[C@@H](CC(C)C)C(=O)N[C@@H](CCCCNC(=O)COCCOCCNC(=O)COCCOCCNC(=O)CC[C@H](NC(=O)CCCCCCCCCCCCCCCCC(=O)O)C(=O)O)C(=O)N[C@@H](CCC(N)=O)C(=O)N[C@H](C(=O)N[C@@H](CC(C)C)C(=O)N[C@@H](CC(C)C)C(=O)N[C@@H](CCC(=O)O)C(=O)N[C@@H](CCC(N)=O)C(=O)N[C@@H](C)C(=O)N[C@@H](CCCNC(=N)N)C(=O)N[C@@H](CCC(N)=O)C(=O)N[C@@H](CCCCN)C(=O)NC(C)(C)C(=O)N[C@@H](CCC(N)=O)C(=O)N[C@@H](CCCNC(=N)N)C(=O)N[C@@H](C)C(=O)N[C@@H](CCC(N)=O)C(=O)N[C@@H](C)C(=O)N[C@@H](CCC(=O)O)C(=O)N[C@@H](CCCCN)C(=O)N[C@@H](CC(N)=O)C(=O)N[C@@H](CCCCN)C(=O)N[C@@H](CCCNC(=N)N)C(=O)N[C@H](C(=O)N[C@@H](CC(C)C)C(=O)N[C@@H](CCC(=O)O)C(=O)N[C@@H](CCCNC(=N)N)C(=O)N[C@H](C(N)=O)C(C)C)[C@@H](C)CC)[C@@H](C)CC)[C@@H](C)CC)C(C)C)C(C)C
B4: peptide of SEQ ID NO: 126 (peptide)
peptide: IVLSLD[dV]PIKLK([AEEA-AEEA-γGlu-C18 diacid])QILLEQAKQK[Aib]QRAQAEKNKRILERV-NH2
modifications: N-terminus assumed
SMILES: CC[C@H](C)[C@H](N)C(=O)N[C@H](C(=O)N[C@@H](CC(C)C)C(=O)N[C@@H](CO)C(=O)N[C@@H](CC(C)C)C(=O)N[C@@H](CC(=O)O)C(=O)N[C@@H](C(=O)N1CCC[C@H]1C(=O)N[C@H](C(=O)N[C@@H](CCCCN)C(=O)N[C@@H](CC(C)C)C(=O)N[C@@H](CCCCNC(=O)COCCOCCNC(=O)COCCOCCNC(=O)CC[C@H](NC(=O)CCCCCCCCCCCCCCCCC(=O)O)C(=O)O)C(=O)N[C@@H](CCC(N)=O)C(=O)N[C@H](C(=O)N[C@@H](CC(C)C)C(=O)N[C@@H](CC(C)C)C(=O)N[C@@H](CCC(=O)O)C(=O)N[C@@H](CCC(N)=O)C(=O)N[C@@H](C)C(=O)N[C@@H](CCCCN)C(=O)N[C@@H](CCC(N)=O)C(=O)N[C@@H](CCCCN)C(=O)NC(C)(C)C(=O)N[C@@H](CCC(N)=O)C(=O)N[C@@H](CCCNC(=N)N)C(=O)N[C@@H](C)C(=O)N[C@@H](CCC(N)=O)C(=O)N[C@@H](C)C(=O)N[C@@H](CCC(=O)O)C(=O)N[C@@H](CCCCN)C(=O)N[C@@H](CC(N)=O)C(=O)N[C@@H](CCCCN)C(=O)N[C@@H](CCCNC(=N)N)C(=O)N[C@H](C(=O)N[C@@H](CC(C)C)C(=O)N[C@@H](CCC(=O)O)C(=O)N[C@@H](CCCNC(=N)N)C(=O)N[C@H](C(N)=O)C(C)C)[C@@H](C)CC)[C@@H](C)CC)[C@@H](C)CC)C(C)C)C(C)C
B5: peptide of SEQ ID NO: 134 (peptide)
peptide: IVLSLD[dV]PIKLK([AEEA-AEEA-γGlu-C18 diacid])QILLKQERQK[Aib]QREKAEKNKQILAQV-NH2
modifications: N-terminus assumed
SMILES: CC[C@H](C)[C@H](N)C(=O)N[C@H](C(=O)N[C@@H](CC(C)C)C(=O)N[C@@H](CO)C(=O)N[C@@H](CC(C)C)C(=O)N[C@@H](CC(=O)O)C(=O)N[C@@H](C(=O)N1CCC[C@H]1C(=O)N[C@H](C(=O)N[C@@H](CCCCN)C(=O)N[C@@H](CC(C)C)C(=O)N[C@@H](CCCCNC(=O)COCCOCCNC(=O)COCCOCCNC(=O)CC[C@H](NC(=O)CCCCCCCCCCCCCCCCC(=O)O)C(=O)O)C(=O)N[C@@H](CCC(N)=O)C(=O)N[C@H](C(=O)N[C@@H](CC(C)C)C(=O)N[C@@H](CC(C)C)C(=O)N[C@@H](CCCCN)C(=O)N[C@@H](CCC(N)=O)C(=O)N[C@@H](CCC(=O)O)C(=O)N[C@@H](CCCNC(=N)N)C(=O)N[C@@H](CCC(N)=O)C(=O)N[C@@H](CCCCN)C(=O)NC(C)(C)C(=O)N[C@@H](CCC(N)=O)C(=O)N[C@@H](CCCNC(=N)N)C(=O)N[C@@H](CCC(=O)O)C(=O)N[C@@H](CCCCN)C(=O)N[C@@H](C)C(=O)N[C@@H](CCC(=O)O)C(=O)N[C@@H](CCCCN)C(=O)N[C@@H](CC(N)=O)C(=O)N[C@@H](CCCCN)C(=O)N[C@@H](CCC(N)=O)C(=O)N[C@H](C(=O)N[C@@H](CC(C)C)C(=O)N[C@@H](C)C(=O)N[C@@H](CCC(N)=O)C(=O)N[C@H](C(N)=O)C(C)C)[C@@H](C)CC)[C@@H](C)CC)[C@@H](C)CC)C(C)C)C(C)C
B6: peptide of SEQ ID NO: 125 (peptide)
peptide: IVLSLDVPIKLK([AEEA-AEEA-γGlu-C18 diacid])QILLEQARQK[Aib]QREQAEKNKRILERV-NH2
modifications: N-terminus assumed
SMILES: CC[C@H](C)[C@H](N)C(=O)N[C@H](C(=O)N[C@@H](CC(C)C)C(=O)N[C@@H](CO)C(=O)N[C@@H](CC(C)C)C(=O)N[C@@H](CC(=O)O)C(=O)N[C@H](C(=O)N1CCC[C@H]1C(=O)N[C@H](C(=O)N[C@@H](CCCCN)C(=O)N[C@@H](CC(C)C)C(=O)N[C@@H](CCCCNC(=O)COCCOCCNC(=O)COCCOCCNC(=O)CC[C@H](NC(=O)CCCCCCCCCCCCCCCCC(=O)O)C(=O)O)C(=O)N[C@@H](CCC(N)=O)C(=O)N[C@H](C(=O)N[C@@H](CC(C)C)C(=O)N[C@@H](CC(C)C)C(=O)N[C@@H](CCC(=O)O)C(=O)N[C@@H](CCC(N)=O)C(=O)N[C@@H](C)C(=O)N[C@@H](CCCNC(=N)N)C(=O)N[C@@H](CCC(N)=O)C(=O)N[C@@H](CCCCN)C(=O)NC(C)(C)C(=O)N[C@@H](CCC(N)=O)C(=O)N[C@@H](CCCNC(=N)N)C(=O)N[C@@H](CCC(=O)O)C(=O)N[C@@H](CCC(N)=O)C(=O)N[C@@H](C)C(=O)N[C@@H](CCC(=O)O)C(=O)N[C@@H](CCCCN)C(=O)N[C@@H](CC(N)=O)C(=O)N[C@@H](CCCCN)C(=O)N[C@@H](CCCNC(=N)N)C(=O)N[C@H](C(=O)N[C@@H](CC(C)C)C(=O)N[C@@H](CCC(=O)O)C(=O)N[C@@H](CCCNC(=N)N)C(=O)N[C@H](C(N)=O)C(C)C)[C@@H](C)CC)[C@@H](C)CC)[C@@H](C)CC)C(C)C)C(C)C

Molecular target: T1, CRF1R receptor (anti-target)
Assay: cell-based or functional assay

| Binder | EC50 [nM] 0% HSA (cAMP, HTRF) [nM] | Emax (%) (100% = Sauvagine at 100 nM) |
| --- | --- | --- |
| B1 | > 100 | -2.5 |
| B2 | > 100 | 2.6 |
| B3 | > 100 | 9 |
| B4 | > 100 | 36.5 |
| B5 | > 100 | -8.6 |
| B6 | > 100 | 17.7 |
